In assay [1] the target is cynomolgus monkey CD33 extracellular domain with 6xHis-tag (cynomolgus monkey). The assay can be described thus: ELISA, hybridoma supernatant. (An ELISA detects its analyte on a solid surface through an enzyme-linked reagent.)
The target in assay [2] is mouse CD33 extracellular domain with 6xHis-tag (mouse) (UniProt Q63994). The assay can be described thus: ELISA, hybridoma supernatant.

Changes are numbered by the printed parent chain.

Chain of mouse CD33 extracellular domain with 6xHis-tag (mouse) (Q63994 other isoform, or with tags, fused parts or gaps limits assumed): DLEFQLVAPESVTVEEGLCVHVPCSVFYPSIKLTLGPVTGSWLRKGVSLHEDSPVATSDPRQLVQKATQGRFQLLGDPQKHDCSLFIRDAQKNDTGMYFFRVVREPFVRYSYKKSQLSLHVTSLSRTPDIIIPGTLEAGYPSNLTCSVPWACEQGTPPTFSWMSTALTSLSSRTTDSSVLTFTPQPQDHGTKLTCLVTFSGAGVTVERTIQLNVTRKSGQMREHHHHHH

B1: 1-A20 (antibody, V domains shown)
VH: QVQLQESGPGLVKPSETLSLTCTVSGDSISSYYWSWIRQPAGKGLEWIGRIYTSGNTNYNPSLKSRVTMSVDKSKNQFSLKLRSVTAADTAVYYCARDGDNRDSDAFDIWGQGTMVTVSS
VL: SPGTLSLSPGERATLSCRASQNISSSYLAWCQQKPGQAPRLFIYGTSRRATGIPDRFSGSGSGTDFTLTISRLEPEDFAVYYCQQYGSSPLTFGGGTKVEIK
Turning to B1, the RLU in assay [1] worked out at 35500 RLU.

B2: 1-H19 (antibody, V domains shown)
VH: B1 VH with D27G, S31T, K73T, F78L, D103N
VL: QSVLTQPPSVSGAPGQRVTISCTGSSSNIGAGYDVHWYQQLPGTAPKLLIYGNSNRPSGVPDRFSGSKSGTSASLAITGLQAEDEADYYCQSYDRSLSGWVFGGGTKLTVL
As for B2, the RLU in assay [1] stood at 22500 RLU.

B3: 3-P14 (hybridoma antibody) (antibody, V domains shown)
VH: EVQLLESGGGLVQPGGSLRLSCAASGFTFSTYAMSWVRQAPGKGLEWVSAISGRGGSTYYTDSVKGRFTISRDNSKNTVSLQMNSLRAEDTAVYYCAGRGDYYYYYGMDVWGQGTTVTVSA
VL: DIVMTQSPLSSPVTLGQPASFSCRSSQSLVYSDGNTYLSWLQQRPGQPPRLLIYKISNRFSGVPDRFSGSGAGTDFTLKISRVEAEDVGVYYCMQSTQFPHTFGQGTKLEIK
Regarding B3, the figures for the RLU in assay [1] and in assay [2] were 12700 RLU and 13700 RLU, respectively.

Source of the values: patent US20240262910A1.
